# Assay results reported in article PMC7465229.
# System: H5N1 influenza A virus, whole virion (hemagglutinin presumed target) (Influenza A virus H5N1 (A/wild duck/Korea/SNU50-5/2011))
# Test: rGO fluorescence recovery
# Conditions: assay buffer, pH and temperature not stated ([…]
sequence,measurement,value
ATGCGGATCCCGCGCGCGACCGTGTCAGCGGGGACTAGCGGTGTAGCGCGAAGCTTGCGC [HBA1],Kd,70 nM
ATGCGGATCCCGCGCGGGTCTGAGGAGTGCGCGGTGCCAGTGAGTGCGCGAAGCTTGCGC [HBA2],Kd,122 nM
CCGCGCGGGTCTGAGGAGTGCGCGG [tHBA2],Kd,1320 nM
GACCGTGTCAGCGGGGACTAGCGGTG [tHBA1],Kd,492 nM
